The text below walks through data of publication PMC2475632.

What is called Kd is the free concentration of one partner at which half of the binding sites on the other are occupied at equilibrium, for simple one-to-one binding. A lower Kd goes with a tighter complex.

This data set addresses T1, Dpo4 (DNA polymerase IV) (Sulfolobus solfataricus, UniProt Q97W02 1-352).
T1 sequence: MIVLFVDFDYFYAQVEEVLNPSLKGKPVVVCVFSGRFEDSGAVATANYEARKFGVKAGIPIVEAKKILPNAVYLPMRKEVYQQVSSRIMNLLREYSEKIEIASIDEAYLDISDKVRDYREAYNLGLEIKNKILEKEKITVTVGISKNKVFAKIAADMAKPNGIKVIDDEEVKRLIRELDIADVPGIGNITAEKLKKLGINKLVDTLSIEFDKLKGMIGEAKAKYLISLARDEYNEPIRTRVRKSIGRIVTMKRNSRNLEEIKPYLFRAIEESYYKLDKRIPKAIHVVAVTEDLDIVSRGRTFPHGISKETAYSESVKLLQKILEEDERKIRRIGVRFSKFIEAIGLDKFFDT
Nature of the data set: EMSA. (Mobility shift assays separate free from complexed probe on a gel.)

B1: 21-mer/44DDP (dsDNA)
DNA 1: GTCCCTGTTCGGGCGCCAGGA
DNA 2: GATCACGAGACTAGCCTCTGGTCTCCTGGCGCCCGAACAGGGAC
modifications: cisplatin-d(GpG) intrastrand cross-link at template G20-G21 (5' to 3' numbering; GG inferred from primer 23/24 sites)
The molecule B1 had a Kd of 8 ± 1 nM.

B2: 27-mer/44CTL (dsDNA)
DNA 1: GTCCCTGTTCGGGCGCCAGGAGACCAG
DNA 2: GATCACGAGACTAGCCTCTGGTCTCCTGGCGCCCGAACAGGGAC
In turn, B2 displayed a Kd of 13 ± 4 nM.

B3: 22-mer/44DDP (dsDNA)
DNA 1: GTCCCTGTTCGGGCGCCAGGAG
DNA 2: GATCACGAGACTAGCCTCTGGTCTCCTGGCGCCCGAACAGGGAC
modifications: cisplatin-d(GpG) intrastrand cross-link at template G20-G21
Molecule B3 registered a Kd of 21 ± 4 nM.

B4: 21-mer/44CTL (dsDNA)
DNA 1: GTCCCTGTTCGGGCGCCAGGA
DNA 2: GATCACGAGACTAGCCTCTGGTCTCCTGGCGCCCGAACAGGGAC
B4 had a Kd of 18 ± 3 nM.

B5: 22-mer/44CTL (dsDNA)
DNA 1: GTCCCTGTTCGGGCGCCAGGAG
DNA 2: GATCACGAGACTAGCCTCTGGTCTCCTGGCGCCCGAACAGGGAC
In turn, B5 registered a Kd of 16 ± 3 nM.

B6: 25-mer/44DDP (dsDNA)
DNA 1: GTCCCTGTTCGGGCGCCAGGAGACC
DNA 2: GATCACGAGACTAGCCTCTGGTCTCCTGGCGCCCGAACAGGGAC
modifications: cisplatin-d(GpG) intrastrand cross-link at template G20-G21
Turning to B6, the Kd was determined as 17 ± 4 nM.

B7: 23-mer/44CTL (dsDNA)
DNA 1: GTCCCTGTTCGGGCGCCAGGAGA
DNA 2: GATCACGAGACTAGCCTCTGGTCTCCTGGCGCCCGAACAGGGAC
B7 returned a Kd of 17 ± 2 nM.

B8: 23-mer/44DDP (dsDNA)
DNA 1: GTCCCTGTTCGGGCGCCAGGAGA
DNA 2: GATCACGAGACTAGCCTCTGGTCTCCTGGCGCCCGAACAGGGAC
modifications: cisplatin-d(GpG) intrastrand cross-link at template G20-G21
In the case of B8, the Kd stood at 56 ± 9 nM.

B9: 26-mer/44CTL (dsDNA)
DNA 1: GTCCCTGTTCGGGCGCCAGGAGACCA
DNA 2: GATCACGAGACTAGCCTCTGGTCTCCTGGCGCCCGAACAGGGAC
Molecule B9 returned a Kd of 11 ± 2 nM.

B10: 27-mer/44DDP (dsDNA)
DNA 1: GTCCCTGTTCGGGCGCCAGGAGACCAG
DNA 2: GATCACGAGACTAGCCTCTGGTCTCCTGGCGCCCGAACAGGGAC
modifications: cisplatin-d(GpG) intrastrand cross-link at template G20-G21
In the case of B10, binding was put at a Kd of 17 ± 3 nM.

B11: 24-mer/44CTL (dsDNA)
DNA 1: GTCCCTGTTCGGGCGCCAGGAGAC
DNA 2: GATCACGAGACTAGCCTCTGGTCTCCTGGCGCCCGAACAGGGAC
Molecule B11 showed a Kd of 8 ± 1 nM.

B12: 24-mer/44DDP (dsDNA)
DNA 1: GTCCCTGTTCGGGCGCCAGGAGAC
DNA 2: GATCACGAGACTAGCCTCTGGTCTCCTGGCGCCCGAACAGGGAC
modifications: cisplatin-d(GpG) intrastrand cross-link at template G20-G21
In turn, B12 gave a Kd of 26 ± 3 nM.

B13: 25-mer/44CTL (dsDNA)
DNA 1: GTCCCTGTTCGGGCGCCAGGAGACC
DNA 2: GATCACGAGACTAGCCTCTGGTCTCCTGGCGCCCGAACAGGGAC
As to B13, the affinity, expressed as Kd, was 5 ± 1 nM.

B14: 26-mer/44DDP (dsDNA)
DNA 1: GTCCCTGTTCGGGCGCCAGGAGACCA
DNA 2: GATCACGAGACTAGCCTCTGGTCTCCTGGCGCCCGAACAGGGAC
modifications: cisplatin-d(GpG) intrastrand cross-link at template G20-G21
As for B14, binding was characterised by a dissociation constant (Kd) of 12 ± 2 nM.
